Reference: US20230226096A1 (Orna Therapeutics, Inc., priority 2020, published 2023)

B1: Limnipivirus C (nucleic acid)
DNA: GTTTCTGAGCACTGGTAAGAGCTTAGACAAACGTTTTTAAAATTTATTTTCTCTGCAACTTTTGTTTGTGTTTATTTTTATTTGTTAATTTTGCGCCTAAGCATTTGTTGCGAAGTATTTGATTCATTAGTAATATTACTTATTGTTTATTTAGATGGTATTCAAAGTGGTGGGAGTATCGAACCCAAGCGTCGTATGCTATCTCCTTGAACAATTTTTAATCATTGCGAAGTGATCATTGAAAAGGATAGGTGTTTAAGAACTCAAAGAGTGTTAATAATGTTGGGTGACAGGTGTCCCCATAGAATTTATTAACATGATTTGGACTGGTTATCTAGTAAGAAGAACCATCGAACGCACGAGCGAGCATTGCTTGCGGGGCAGTTACCCTGCGTCGATGTAAGTGTGTACCGGGGGGTGCACATGTTGATTCTTTATGGCCTGATAGGGTGCGTCATTCGCGCCTAGATAATTAGTATAATGCGAATGGAATAAATTTAC
modifications: Limnipivirus C
B2: Kunsagivirus B (nucleic acid)
DNA: GATTTTCTGGTTATCCCTTTTGGACTTGGTAGGGGCCCACGTGCCCACCCACCTCTGTGTGTGTTGATTTCTAATCGATGCCTGGCAGTGGCGGCCACCTCTCCTTACTGGTAAACCTCCGGTGAGTGAAGTTGTCAAGCTACAGGTACCGTGCAGGATGAAATGCGCACATGTGAACAAACTAGGAGTCATACACCGGGTCAAACTCTGGAAACGGAGTCCGGGACTCTGACCTTGGTTGGGTGAGCTCGAGGCATCACATTGATGGACGCGATTCGCTATCCTTCCCTAGTAGGACCTTGTGGTGTACCCCTGGTTGGGAATCCAGGGCTGGTCGGGTGCAGGGTGACAGCCTGTTCTCCACCTCAACCATTGTAGGAGAAATCAACCCCT
modifications: Kunsagivirus B
B3: Limnipivirus A (nucleic acid)
DNA: TTCTTTGGATATCCATTTAACGTGTACCCTATACGATAATTGGGGTGGATTCTGGATGCCTAGTTCCAGTGATTGGTTAAGAACTCGTTTACTACGTATAGTATGATTAGCAAAGTGCTCGATTGATCACGTAATGATCTATGTGGTTAAAAACCCAGTAGTATGGTATATACTCAGTAGTGTACACTGTGAGTACAACTCTTGGCGTAGAGAGAACAATTCACCCGAATCCGTGGCGTATCCATGGAAATAAGTTTACCTAATTGTATGTTACAAGGCATATGAGACATTTATGAGATATGGTTTATTTTGACTAAACGAGTGTAGAGGTGGTGGAGTCTATCCAACTTCAAGCCATGCAATTGTTGTGTTGATTGATATCATTGACCATTTTTGTGGATTGTGTACACATACAATTTGAAAATTAACCCCCTCAAGAATAAGACATGGGACCATTCGTGGTAGATACCGTGCTCGGATGCTTGAGATTAGATGGGTTAGACTAGTTTTGGAATGAGATTGCCGAGAAAGTCCCGCTAGACATGTTTTACAAGTCGTGGTATTCCGCTAGACTTTTTCGCAGACACATGGAAGGGTCCATGTGTTGTGCAATTGCAGGGTGACAGCCCAACTGCAGAGTTTTCCTTACTAGAATAAAAATCTGTTGTCAATTTT
modifications: Limnipivirus A
B4: Orivirus (nucleic acid, listed as Orivirus sp.)
DNA: GGTCCCAGGCCAATATTCTTCGTAAGGCTTGGTTCCAATTTTCCACCACTCGTGTTTGGGTTCTGGCCTATGGTACCCAGAGGGGCGGTTTGGGGGAATTAACTCCCCCTCCCCTGTGGTCCTATACCACCCCACACCTCTGTGGGCTTTCTTTACTATCTTCTTGTTTTCCGACTTTTAAACACTAGGCAGGCGCGCCTAGTCATACACCGCCCGGCTGGTCTTTCCAGCTCTTGTGGGCGGTGCGCGCTGGTCCATCGTGCCCAGCGACATAGCACCTTGTGGACACCTCCGAACGCCCTCCCCTGTATGGGGTGGTGCCCAGGGGTTTCAGTGTGGTGACACACTCCCTGGGGCCCGAAAGGCTAGTGTGCAACAGGTGAGGTACAGCCAGCTGCCCCCGTGGCTGGAGGGACCAAGCTTGTGAAGCACACCTCACCTTCTTGGGGGTGGGCTAGTAAGTGGTGAAAGCATAGTGTCCGTGTCGCTGGCCAACACTTTGGGTCAAGTCCAGCCACTCAGTGAGTAGATGCCCAGGAGGTACCCCTAGTGGATCTGACTTGGGGCCTGTTACTTAATGCAGGTTAAAAACTATGAAAGCTGAGTAGTGTAGCCCGGCTGGTGGCTTCTCTTCCTTATTCATTCTATTTTATGGTGACAAACGCAACTGAAGCC

System: HEK293 cells
Type: cell-based, human
Conditions: luminescence from secreted Gluc in supernatant 24 hours after transfection of HEK293 cells; circular RNA encoding Gluc with the named IRES (UTR truncated to 675 nt)

Molecule | Expression
B1 | 1.35E+05
B2 | 8.01E+04
B3 | 8.30E+04
B4 | 6.09E+05
